Measurements as given in publication PMC6785131.

Substrate: N[C@@H](CS)C(=O)O
Assay: purified protein
Format: biochemical, Salmonella enterica
Settings: 2 mM ATP, 2 mM PPi, 10 mM MgCl2, 30 mM KCl, 100 mM HEPES pH 7.5, 37 °C, 25 nM enzyme, 50 μM-2 mM Cys

B1: CysRS^chr (Salmonella enterica subsp. enterica serovar Typhimurium str. LT2) (protein)
chain: MLKIFNTLTRQKEEFKPIHAGEVGMYVCGITVYDLCHIGHGRTFVAFDVVARYLRFLGYKLKYVRNITDIDDKIIKRANENGESFVALVDRMIAEMHQDFDALNILRPDSEPRATHHIQEIIELTRTLIEKGHAYVADNGDVMFDVPTDPTYGQLSRQDLEQLQAGARVDVVDVKRNPMDFVLWKMSKEGEPSWPSPWGEGRPGWHIECSAMNCKQLGNHFDIHGGGSDLMFPHHENEIAQSTCAHDGEYVNYWMHSGMVMVDREKMSKSLGNFFTVRDVLKYYDAETVRYFLMSGHYRSQLNYSEENLKQARASLERLYTALRGTDKSAAPAGGEAFEARFVEAMNDDFNTPEAYSVLFDMAREVNRLKGEDMTAANAMASHLRKISGVLGLLEQEPDVFLQSGAQADDGEVAEIEALIQQRLDARKAKDWAAADAARDRLAEMGIILEDGPQGTTWRRK
notes: tag removal not mentioned
B1 gave a Km of 14 ± 3 µM and a kcat of 1.1 ± 0.2 s⁻¹.
